Among the data in publication PMC11090809 are % relative abundance of the dimer peak and stoichiometry N values, retold here.

This experiment has as its target empty AAVHSC-15 capsid (OXBS1-E fraction of AAV-OXBS1) (AAVHSC-15 (Clade F adeno-associated virus)). Put plainly: charge detection mass spectrometry (CDMS); OXBS1-E fraction sprayed into a CDMS instrument (Megadalton Solutions); single ions trapped, charge detected, masses calculated; n = 1.

For the substance “empty AAVHSC-15 capsid (OXBS1-E fraction of AAV-OXBS1) (complex)”, the % relative abundance of the dimer peak was 20% and the stoichiometry N was 2.

In general, stoichiometry N refers to the number of molecules, sites or subunits per partner or assembly.
